Data taken from US20150267232A1, “IN VIVO AND IN VITRO CARBENE INSERTION AND NITRENE TRANSFER REACTIONS CATALYZED BY HEME ENZYMES” (California Institute of Technology, priority 2012, published 2015).

B1: WT-AxD: WT heme domain + C400D (protein)
chain: TIKEMPQPKTFGELKNLPLLNTDKPVQALMKIADELGEIFKFEAPGRVTRYLSSQRLIKEACDESRFDKNLSQALKFVRDFAGDGLFTSWTHEKNWKKAHNILLPSFSQQAMKGYHAMMVDIAVQLVQKWERLNADEHIEVPEDMTRLTLDTIGLCGFNYRFNSFYRDQPHPFITSMVRALDEAMNKLQRANPDDPAYDENKRQFQEDIKVMNDLVDKIIADRKASGEQSDDLLTHMLNGKDPETGEPLDDENIRYQIITFLIAGHETTSGLLSFALYFLVKNPHVLQKAAEEAARVLVDPVPSYKQVKQLKYVGMVLNEALRLWPTAPAFSLYAKEDTVLGGEYPLEKGDELMVLIPQLHRDKTIWGDDVEEFRPERFENPSAIPQHAFKPFGNGQRADIGQQFALHEATLVLGMMLKHFDFEDHTNYELDIKETLSLKPKGFVVKAKSKKIPLGGIPSPST
modifications: synthetic cytochrome P450-BM3 variant WT-AxD (heme)
notes: WT heme domain + C400D
B2: H2-5-F10: 9-10A TS + F87V, L75A, I263A, T268A, L437A (protein, listed as Bacillus megaterium)
chain: TIKEMPQPKTFGELKNLPLLNTDKPVQALMKIADELGEIFKFEAPGRVTRYLSSQRLIKEACDESRFDKNLSQAAKFARDFAGDGLVTSWTHEKNWKKAHNILLPSFSQQAMKGYHAMMVDIAVQLVQKWERLNADEHIEVSEDMTRLTLDTIGLCGFNYRFNSFYRDQPHPFIISMVRALDEVMNKLQRANPDDPAYDENKRQFQEDIKVMNDLVDKIIADRKARGEQSDDLLTQMLNGKDPETGEPLDDGNIRYQIITFLAAGHEATSGLLSFALYFLVKNPHVLQKVAEEAARVLVDPVPSYKQVKQLKYVGMVLNEALRLWPTAPAFSLYAKEDTVLGGEYPLEKGDEVMVLIPQLHRDKTVWGDDVEEFRPERFENPSAIPQHAFKPFGNGQRACIGQQFALHEATLVLGMMLKHFDFEDHTNYELDIKETATLKPKGFVVKAKSKKIPLGGIPSPSTEQSAKKVRKKAENAHNTPLLVLYGSNMGTAEGTARDLADIAMSKGFAPQVATLDSHAGNLPREGAVLIVTASYNGHPPDNAKQFVDWLDQASADEVKGVRYSVFGCGDKNWATTYQKVPAFIDETLAAKGAENIADRGEADASDDFEGTYEEWREHMWSDVAAYFNLDIENSEDNKSTLSLQFVDSAADMPLAKMHGAFSTNVVASKELQQPGSARSTRHLEIELPKEASYQEGDHLGVIPRNYEGIVNRVTARFGLDASQQIRLEAEEEKLAHLPLAKTVSVEELLQYVELQDPVTRTQLRAMAAKTVCPPHKVELEALLEKQAYKEQVLAKRLTMLELLEKYPACEMKFSEFIALLPSIRPRYYSISSSPRVDEKQASITVSVVSGEAWSGYGEYKGIASNYLAELQEGDTITCFISTPQSEFTLPKDPETPLIMVGPGTGVAPFRGFVQARKQLKEQGQSLGEAHLYFGCRSPHEDYLYQEELENAQSEGIITLHTAFSRMPNQPKTYVQHVMEQDGKKLIELLDQGAHFYICGDGSQMAPAVEATLMKSYADVHQVSEADARLWLQQLEEKGRYAKDVWAG
modifications: cytochrome P450NADPH-P-450 reductase precursor, cytochrome P450 (BM3), CYP102A1
notes: 9-10A TS + F87V, L75A, I263A, T268A, L437A

Key:
Type in all cases: biochemical
[1] = Intramolecular carbene C—H insertion, substrate 4.1a
Description: (§1) Yield of product 4.22b was established after calibration with phenethyl alcohol as an internal standard. The reaction is not catalyzed by the WT-BM3 heme domain or hemin at 5% catalyst loading.
A representative procedure for P450-catalyzed C—H insertion is as follows: A vial containing WT-AxD (20 μL, 200 μM) was sealed with a teflon cap and the headspace of this vial was purged with argon for 5 min. Concurrently, a solution of sodium dithionite (11 mM in phosphate buffer pH=8) was degassed for a minimum of 5 min and 360 μL of this solution was transferred to the vial containing protein. The gas lines were disconnected from the vials. The substrate 4.1a or 4.1b was then added as a solution (20 μL, 200 mM). Final concentrations of all components were: 10 uM enzyme, 10 mM substrate, and 10 mM dithionite. […]
(§2) The mixture was extracted with 1 mL cyclohexane and analyzed by GC-MS or GC. GC-MS was performed on a Shimadzu TQ8030 GC-MS with ion count detector and J&W HP-5 column (30 m×0.32 mm, 0.25 μm film) using the following method: 90° C. (hold 2 min), 90-190° C. (20° C./min), and 190-230 (40° C./min)

[2] = Intramolecular carbene C—H insertion, substrate 4.1b; conditions: 10 mM 4.1b, 10 uM P450, 10 mM Na2S2O4; product 4.2b
Description: as §1
A representative procedure for P450-catalyzed C—H insertion is as follows: A vial containing WT-AxD (20 μL, 200 μM) was sealed with a teflon cap and the headspace of this vial was purged with argon for 5 min. Concurrently, a solution of sodium dithionite (11 mM in phosphate buffer pH=8) was degassed for a minimum of 5 min and 360 μL of this solution was transferred to the vial containing protein. The gas lines were disconnected from the vials. The substrate 4.1a or 4.1b was then added as a solution (20 μL, 200 mM). Final concentrations of all components were: 10 uM enzyme, 10 mM substrate, and 10 mM dithionite. The reaction vials were then placed in a tray on a plate shaker and left to shake at 40 rpm for 12 h then 20 μL phenethyl alcohol (20 mM) was added as an internal standard.
as §2

[3] = P450BM3 compilation plate screen (GC, cyclopropane peaks); conditions: P450BM3 variants
[4] = N—H insertion, aniline with ethyl diazo acetate (EDA)
Text: We have found a variety of P450 variants to be general catalysts for carbenoid N—H insertion. We combined aniline with EDA in the presence of a reductant (Na2S2O4) under argon atmosphere and tested the mixture with seven P450BM3 variants previously identified as competent catalysts for cyclopropanation (Coelho, P. et al., Science. 2013, 339, 307-310). In choosing this set of P450s, we hypothesized that cyclopropanation activity could correlate with ability to generate the iron-carbenoid intermediate that is also necessary for N—H insertion. Whereas wild type BM3 (WT-BM3 (SEQ ID NO:1), Table 20, entry 1) provided only trace amounts of the desired product (4.3), a few variants gave 4.3 in good yields after 12 h at room temperature. In particular, variant H2-5-F10 which is derived from a thermostable P450BM3 lineage (Lewis, J. C. et al. ChemBioChem, 2010, 11, 2502-2505) and contains 15 mutation from WT-BM3 (SEQ ID NO:1), formed 4.3 in 47% yield and 473 turnovers (TTN) using 0.1% protein relative to EDA (entry 7). […] In contrast, when 1 mol % of the isolated hemin prosthetic group was used as catalyst, the single and double insertion products were produced in a 3.5 to 1 ratio (with a total product yield of 51%).
A representative procedure for P450-catalyzed N—H insertion is as follows. To an unsealed crimp vial, 60 μL of a P450 solution (67 or 133 μM) was added and the vial was sealed. A 12.5 mM solution of sodium dithionite in phosphate buffer (0.1 M, pH=8.0) was degassed by bubbling with argon in a 6 mL crimp-sealed vial. The headspace of the 2 mL vials containing P450 solution were flushed with argon (no bubbling). The buffer/dithionite solution (360 μL) was then added to each reaction vial via syringe, and the gas lines were disconnected from the vials. 10 μL of an 800 mM stock of aniline was added via a glass syringe, followed by 10 μL of a 340 mM stock of EDA (both stocks in MeOH). The reaction vials were then placed in a tray on a plate shaker and left to shake at 40 rpm. The final concentrations of the reagents were typically: 20 mM aniline, 8.5 mM EDA, 10 mM Na2S2O4, and 10 or 20 μM P450. After 12 h at 25° C., the vials were removed from the shaker and uncapped and 1 mL of cyclohexane was added, followed by 20 μL of a 20 mM solution of phenethyl alcohol (internal standard). The mixture was transferred to a 1.5 mL Eppendorf tube and vortexed and centrifuged (13,000×g, 1 min.). The organic layer was dried over sodium sulfate if necessary then analyzed by GC, with comparison to an authentically prepared sample that has been verified by proton NMR ([…], Varian, CDCl3).
Substitution is well-tolerated on the aniline partner on both the ortho and para positions. Reactions were analyzed by a Shimadzu GC with FID detector and J&W HP-5 column (30 m×0.32 mm, 0.25 μm film) and calibrated to an independently prepared sample of each product using phenethyl alcohol as internal standard. Reaction of aniline and EDA was also performed in milligram scale without any organic cosolvent to provide 4.3 in 65% isolated yield.
Calibration curves were plotted as follows. Yields of N—H insertion products were determined using calibration curves made with independently synthesized standards that have been verified by proton NMR, with comparison to known literature data (Baumann, L. K. et al. Organometallics. 2007, 26, 3995-4002; Anding, B. J. et al. Organometallics. 2013, 32, 2599-2607). Two stock solutions of product were made at 160 mM and 40 mM. To four or five samples containing 380 μL of buffer, product was added from either of the stock solutions such at a final concentration of 0.5-8.0 mM in 400 μL was obtained. 20 μL of internal standard was added to each eppendorf tube, then 1 mL of cyclohexane was added and the tubes were vortexed and centrifuged (13,000 ×g, 30 seconds). The organic layer was then analyzed by GC. The ratio of the areas under the internal standard and product peaks were plotted against the concentration for each solution. […]

[5] = N—H insertion, aniline with ethyl 2-diazopropanoate; conditions: protein 20 μM, diazo 10.0 mM, aniline 20 mM
Description: The reactions shown in FIG. 37A were carried out with protein (20 μM), ethyl diazo acetate (8.5 mM), aniline (20 mM) and Na2S2O4 (10 mM) in phosphate buffer (pH 8) and allowed to shake at room temperature for 12 h. Yields are reported in parenthesis and TTN are presented in italics. Yields were determined by GC calibrated for each product. An isolated yield of 65% for compound 4.3 was determined for the milligram scale reaction run as follows: 25 mM EDA, 25 mM aniline, 25 μM protein, and 25 mM Na2S2O4. The reaction producing compounds 4.5 and 4.10 were carried out with protein (20 μM), ethyl diazo acetate (10.0 mM), aniline (20 mM) and Na2S2O4 (10 mM).
While substituted diazo compounds can also be used for insertion, the yield from N—H insertion of ethyl 2-diazopropanoate into aniline is only 26% (product 4.5). To improve efficiency of this reaction, we examined the reaction of ethyl 2-diazopropanoate with a variety of axial mutants. In particular, the axial mutant WT-AxA provided the desired product in 83% yield, compared to 8% yield and 1.7% yield with axial mutant WT-AxS and WT-BM3 heme domain, respectively (FIG. 37B).
The reactions shown in FIG. 37B were carried out with 10 μM catalyst loading, 20 mM aniline, 10 mM Na2S2O4 and 10 mM ethyl 2-diazopropanoate as described above. For the final entry in FIG. 37B, whole cells expressing BM3-CIS-T438S at 2.5 μM were used. See, U.S. Provisional Application No. 61/711,640 for the procedure for catalysis with whole cells.

[6] = N—H insertion, diethyl amine and 4.11 (lidocaine synthesis); conditions: GC-MS
Description: Diazo amides are also competent substrates for this reaction, and alpha-amino amides like 4.10 (FIG. 37A) can be produced in moderate yields. This transformation is particularly valuable because diazo amides can give rise to important building block compounds like diamines Additionally, this transformation can be used for the synthesis of lidocaine, which we were able to prepare using diethyl amine and 4.11 in the presence of H2-5-F10 (Scheme 1). […] (hold 1 min), 100-140° C. (6° C./min), 140-260° C. (20° C./min), 260° C. (hold 3 min)

Row | Molecule | Yield % ([1]; 10 mM 4.1a, 10 uM P450, 10 mM Na2S2O4, product 4.2a) | lactone formation via C—H bond insertion ([1]; substrates 4.1a and 4.1b, 10 μM variant or hemin at 5% catalyst loading, 16 h) | Yield % [2] | ee (cis) ([3]; (R,S)-(S,R), chiral β-CDX GC) | de ([3]; diastereomeric excess = ([cis] − [trans])/([cis] + [trans])) | Absolute activity ([3]; sum of the area of the cyclopropane peaks over the area of the internal standard) | double insertion product ([4]; GC-MS and 1H NMR, milligram-scale reactions) | isolated yield of 4.3 ([4]; milligram scale, 25 mM EDA, 25 mM aniline, 25 μM protein, 25 mM Na2S2O4, no organic cosolvent) | TTn ([4]; protein 10 uM, EDA 8.5 mM, aniline 20 mM, Na2S2O4 10 mM, 12 h) | % Yield ([4]; protein 10 uM, EDA 8.5 mM, aniline 20 mM, Na2S2O4 10 mM, 12 h, product 4.3) | yield of product 4.5 [5] | production of lidocaine [6]
1 | B1 | 14% | lactone formation | 4% |  |  |  |  |  |  |  |  | 
2 | B2 |  |  |  | −56 | −46 | 0.1412 | No double insertion product was observed | 65% | 473 | 47% | 26% | Production of lidocaine was observed
